We go through two compounds from patent US20030108986A1, “Compositions and methods comprising G-protein coupled receptors” (Euroscreen, S.A., priority 2001, published 2003).

In general, EC50 refers to the concentration that produces a half-maximal response.

Assay [1] deals with GPCRx11 (human) (UniProt Q96LB1).
In assay [2] the target is T1, GPCRx11 (Homo sapiens, UniProt Q96LB1).
T1 construct: expressed in transfected cells; host or cells: CHO-K1
T1 sequence (Q96LB1 1-330): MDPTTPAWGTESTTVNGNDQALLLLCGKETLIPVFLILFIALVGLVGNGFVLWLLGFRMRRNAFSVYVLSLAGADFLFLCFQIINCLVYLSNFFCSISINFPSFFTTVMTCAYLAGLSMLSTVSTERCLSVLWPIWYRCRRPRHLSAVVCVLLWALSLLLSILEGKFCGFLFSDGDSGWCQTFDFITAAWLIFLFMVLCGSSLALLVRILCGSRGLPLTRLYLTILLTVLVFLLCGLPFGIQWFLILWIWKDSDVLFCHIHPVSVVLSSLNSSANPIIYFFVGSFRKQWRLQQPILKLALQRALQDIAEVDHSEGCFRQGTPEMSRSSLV
Put plainly: aequorin-based assay of GPCRx11 activation by angiopeptin. It is filed as cell-based. The procedure:
As used herein, the term “aequorin-based assay” refers to an assay for GPCR activity that measures elevations in intracellular calcium induced by activated GPCRs, wherein intracellular calcium flux is measured by the luminescence of mitochondiral aequorin expressed in the cell.
The aequorin assay takes advantage of the responsiveness of mitochondrial apoaequorin to intracellular calcium release induced by the activation of GPCRs (Stables et al., 1997, Anal. Biochem. 252:115-126; Detheux et al., 2000, J. Exp. Med., 192 1501-1508; both of which are incorporated herein by reference). Briefly, GPCR-expressing clones are transfected to coexpress mitochondrial apoaequorin and Gα16. Cells are incubated with 5 μM Coelenterazine H (Molecular Probes) for 4 hours at room temperature, washed in DMEM-F12 culture medium and resuspended at a concentration of 0.5×10^6 cells/ml. Cells are then mixed with test agonist, or ligand molecules and light emission by the aequorin is recorded with a luminometer for 30 sec. Results are expressed as Relative Light Units (RLU). Controls include assays using membranes isolated from cells not expressing GPCRs (mock transfected), in order to exclude possible non-specific effects of the candidate compound. […]

Some results are limits rather than exact numbers.

In assay [1], angiopeptin (peptide) returned an EC50 (read off the curve); aequorin luminescence (RLU) in transfected CHO-K1 cells of 0.1 µM and an EC50; aequorin luminescence (RLU) in transfected CHO-K1 cells of 0.159 µM.

`CC(C)[C@@H]1NC(=O)[C@H](CCCCN)NC(=O)[C@@H](Cc2c[nH]c3ccccc23)NC(=O)[C@H](Cc2ccc(O)cc2)NC(=O)[C@@H](NC(=O)[C@H](N)Cc2ccc3ccccc3c2)CSSC[C@@H](C(=O)N[C@H](C(N)=O)[C@@H](C)O)NC1=O` [angiopeptin]: the “ligand of the receptor GPCRx11” value in assay [2] (GPCRx11 (SEQ ID NO: 12)) is “natural ligand”. Moreover, in assay [2] (GPCRx11 polypeptide bound by angiopeptin, transfected CHO-K1 cells (FIG. 16), read-out: EC50 of stimulation of mitochondrial aequorin fluorescence), the EC50 is no more than 0.16 µM.
